These results are taken from patent US7858756B2, “Monoclonal antibodies that selectively recognize methamphetamine and methamphetamine like compounds” (The Board of Trustees of the University of Arkansas, priority 2006, dated 2010).

Entries after “also recorded” stand apart in the source; their conditions may differ.

The nature of test [1]: METH infusion by sc osmotic minipump, serum and brain METH and AMP concentrations after mAb. To be noted: for AMP serum concentrations vs pre-mAb levels / METH serum concentrations vs pre-mAb levels: rat serum, 1 min to 24 hr after mAb, FIG. 7. The test is classed as in vivo, rat. The method, then:
FIG. 7 depicts two graphs showing the effect of mAb6H4 (Panel A) and mAb4G9 (Panel B) on METH (closed circles) and AMP (open circles) concentrations in rat serum. METH was infused using a subcutaneous osmotic minipump and once steady state concentrations were reached, anti-METH mAb was administered. Rats were sacrificed at various time points for determination of serum METH and AMP concentrations.
FIG. 8 depicts two graphs showing the effect of mAb6H4 (Panel A) and mAb4G9 (Panel B) on METH (closed circles) and AMP (open circles) concentrations in the rat brain. METH was infused using a subcutaneous osmotic minipump and once steady state concentrations were reached, anti-METH mAb was administered. Rats were sacrificed at various time points for determination of brain METH and AMP concentrations. One way ANOVA followed by a Dunnett's test was used to compare control and post-mAb METH and AMP values.

Test [2] in a line: RIA, inhibition of [3H]-(+)METH binding to mAb. The conditions noted are these: RIA IC50 for METH / RIA IC50 for test ligand. The text has this: In reference to (+)methamphetamine, the IC50 ratio refers to the ratio of the IC50 for (+)methamphetamine in the presence of labeled (+)methamphetamine to the IC50 for a test ligand in the presence of labeled (+)methamphetamine. The IC50 value is the concentration of test ligand required to inhibit 50% of the labeled (+)methamphetamine binding. For instance, see Table 2 in the Examples.
Determination of immunochemical specificity.

Test [3] in a line: Functional half-life study, 14-day continuous (+)METH infusion, serum concentrations. The test is classed as in vivo, rats. The method, then:
The best-fit line was determined using a weighted two-compartment pharmacokinetic model.
Serum samples were collected pre-mAb and at time points after mAb administration.

Test [4] is described as follows: METH drug discrimination model. The format is in vivo, rats. To be noted: 600 mg/kg mAb. How it is done:
(§1) FIG. 6 presents graphs depicting the effect of mAb4G9 on METH discrimination (Panel A) and AMP self-administration (Panel B) in rats. (A) Rats were trained to discriminate […] and METH and then administered mAb4G9. Drug discrimination dose response curves were then determined for METH. (B) (+)AMP self-administration before and after treatment with mAb4G9 (3-4 rats/time point). Dashed lines are used to show the groupings of responding for (+)AMP before and after mAb. *P<0.05 compared to control group before antibody (open circles).
The in vivo effects of mAb4G9 were examined using a drug discrimination model. mAb4G9 appeared to be an effective and long-lasting antagonist of METH effects in this model (FIG. 6A). The mAb4G9 (600 mg/kg) shifted the dose response curves for at least 7 days. On the first and second day after mAb treatment, the dose response curve was shifted about 4- to 6-fold. When tested again at 7 days after mAb4G9 treatment, the dose response curve was still shifted about 2.5 fold.

Test [5] is described as follows: (+)AMP self-administration, fixed interval (60 sec) paradigm. The test is classed as in vivo, rats. The conditions noted are these: 100 mg/kg mAb, 0.03 mg/kg (+)AMP per infusion. The method, then:
as §1
We also tested the ability of mAb4G9 to block (+)AMP self-administration in a model in which rats responded under a fixed interval (60 sec) paradigm for a dose of 0.03 mg/kg (+)AMP per infusion.

Setting [6] is: (+)METH 5.6 mg/kg/day sc minipump, single mAb dose equimolar to body burden.

B1: mAb4G9: monoclonal antibody, IgG2b κ, heavy chain SEQ ID NO:25, light chain SEQ ID NO:26, generated against hapten (+)METH MO10-ovalbumin (antibody, listed as Mus musculus)
heavy: EYQLQQSGTVLARPGASVKMSCKASGYTFTSYWMHWVKQRPGQGLEWIGGIYPGNSDTTYNQKFKGKAKLTAVTSTSTAYMELSSLTNEDSAVYYCLYGNYDFDYWGQGTTLTVSSAKTTPPSVYPLAPGCGDTTGSSVTLGCLVKGYFPESVTVTWNSGSLSSSVHTFPALLQSGLYTMSSSVTVPSSTWPSQTVTCSVAHPASSTTVDKKLEPSGPISTINPCPPCKECHKCPAPNLEGGPSVFIFPPNIKDVLMISLTPKVTCVVVDVSEDDPDVQISWFVNNVEVHTAQTQTHREDYNSTIRVVSTLPIQHQDWMSGKEFKCKVNNKDLPSPIERTISKIKGLVRAPQVYILPPPAEQLSRKDVSLTCLVVGFNPGDISVEWTSNGHTEENYKDTAPVLDSDGSYFIYSKLNMKTSKWEKTDSFSCNVRHEGLKNYYLKKTISRSPGK
light: DVQMTQSPSSLSASLGGKVTITCKASQDINKFIAWYQHKPGKGPRLLIHYTSTLQPGIPSRFSGSGSGRDYSFSISNLEPEDIATYYCLQYANLLPWTFGGGTKLEIKRADAAPTVSIFPPSSEQLTSGGASVVCFLNNFYPKDINVKWKIDGSERQNGVLNSWTDQDSKDSTYSMSSTLTLTKDEYERHNSYTCEATHKTSTSPIVKSFNRNEC
Take B1: in test [1] (rat brain, FIG. 8), the “AMP brain concentrations vs no mAb group” value was “reduces both METH and AMP concentrations in the brain; also recorded: significantly decreased at the 5 and 30 min time points”; the “METH brain concentrations vs no mAb group” value is “reduces both METH and AMP concentrations in the brain; also recorded: significantly decreased METH brain concentrations at all time points”. Also, in test [1], the “AMP serum concentrations vs pre-mAb levels” value was “repartitions AMP into the serum from other compartments; also recorded: maintains significantly elevated serum METH and AMP concentrations 24 h after administration”; the “METH serum concentrations vs pre-mAb levels” value was “maintains significantly elevated serum METH and AMP concentrations 24 h after administration”. For the same molecule, in test [1] (listed as MAb4G9), the “AMP serum concentrations vs pre-mAb levels” value is “significantly increased METH and AMP serum concentrations from 1 min to 24 hrs”; the “METH serum concentrations vs pre-mAb levels” value was “significantly increased METH and AMP serum concentrations from 1 min to 24 hrs”. In test [2], the “Antibody Specificity (IC50 ratio as percent), 4-OH-METH” value is listed as 10.6%; the “Antibody Specificity (IC50 ratio as percent), (+)AMP” value is reported as 34%; the “Antibody Specificity (IC50 ratio as percent), (+)MDA” value turned out to be 9.0%; the “Antibody Specificity (IC50 ratio as percent), (+)MDMA” value worked out at 29%. Also, in test [2], the “Antibody Specificity (IC50 ratio as percent), (+)METH” value was found to be 100%; the “Antibody Specificity (IC50 ratio as percent), (+)ephedrine” value is recorded as less than 0.1%; the “Antibody Specificity (IC50 ratio as percent), (+)norpseudoephedrine” value is on record as less than 0.1%; the “Antibody Specificity (IC50 ratio as percent), (+)phenylpropanolamine” value was less than 0.1%. In test [2], the “Antibody Specificity (IC50 ratio as percent), (+)pseudoephedrine” value was 0.4%; the “Antibody Specificity (IC50 ratio as percent), (−)AMP” value is listed as 6.3%; the “Antibody Specificity (IC50 ratio as percent), (−)MDA” value was found to be 0.2%; the “Antibody Specificity (IC50 ratio as percent), (−)MDMA” value was determined as 1.1%. In test [2], the “Antibody Specificity (IC50 ratio as percent), (−)METH” value is given as 10.2%; the “Antibody Specificity (IC50 ratio as percent), /-phenylphrine” value is recorded as less than 0.1%; the “Antibody Specificity (IC50 ratio as percent), dopamine” value is on record as less than 0.1%; the “Antibody Specificity (IC50 ratio as percent), epinephrine” value is less than 0.1%. For the same molecule, in test [2], the “Antibody Specificity (IC50 ratio as percent), norepinepherine” value is less than 0.1%; the “Antibody Specificity (IC50 ratio as percent), serotonin” value was less than 0.1%; the “Antibody Specificity (IC50 ratio as percent), tyramine” value was less than 0.1%; the “Antibody Specificity (IC50 ratio as percent), β-phenylethylamine” value turned out to be 0.1%. For the same molecule, in test [3] (setting [6]), the “serum (+)AMP concentrations compared with pre-mAb” value is given as “maintained significantly increased concentrations” and the “serum (+)METH concentrations compared with pre-mAb” value was “maintained significantly increased concentrations”. For the same molecule, the “time after which mAb still very effective” value in test [3] (continuous (+)METH infusion, single mAb dose) is “about 2 wks”. Moreover, the “duration of shift of dose response curves” value in test [4] is “at least 7 days”. Moreover, the “shift of METH dose response curve” value in test [4] (7 days after treatment) was “about 2.5 fold”. Also, the “number of (+)AMP injections per session” value in test [5] was “significantly reduced”.

B2: mAb2F11: monoclonal antibody comprising heavy chain SEQ ID NO:19 and light chain SEQ ID NO:21 (antibody, listed as Mus musculus)
heavy: EYQLQQSGTVLARPGASVKMSCKASGYTFTNYWMHWVKQRPGQGLEWIGGIYPGNSDTTYNQKFKGKAKLTAVTSTSTAYMELSSLTNEDSAVYYCLYGNYDFDYWGQGTTLTVSSAKTTAPSVYPLAPVCGDTTGSSVTLGCLVKGYFPEPVTLTWNSGSLSSGVHTFPAVLQSDLYTLSSSVTVTSSTWPSQSITCNVAHPASSTKVDKKIEPRGPTIKPCPPCKCPAPNLLGGPSVFIFPPKIKDVLMISLSPIVTCVVVDVSEDDPDVQISWFVNNVEVHTAQTQTHREDYNSTLRVVSALPIQHQDWMSGKEFKCKVNNKDLPAPIERTISKPKGSVRAPQVYVLPPPEEEMTKKQVTLTCMVTDFMPEDIYVEWTNNGKTELNYKNTEPVLDSDGSYFMYSKLRVEKKNWVERNSYSCSVVHEGLHNHHTTKSFSRTPGK
light: DIQMTQSPSSLSASLGGKVTITCKASHDVNKFIAWYQHKPGKGPRLLIHYTSTLQPGIPSRFSGSGSGRDYSFSISNLEPEDIATYYCLQYTNLLPWTFGGGTKLEIKRADAAPTVSIFPPSSEQLTSGGASVVCFLNNFYPKDINVKWKIDGSERQNGVLNSWTDQDSKDSTYSMSSTLTLTKDEYERHNSYTCEATHKTSTSPIVKSFNRNEC
Regarding B2, in test [2], the “Antibody Specificity (IC50 ratio as percent), (+)AMP” value came out at 33%; the “Antibody Specificity (IC50 ratio as percent), (+)MDMA” value came to 41%; the “Antibody Specificity (IC50 ratio as percent), (+)METH” value is reported as 100%^; the “Antibody Specificity (IC50 ratio as percent), (−)AMP” value came to 5.3%. Moreover, in test [2], the “Antibody Specificity (IC50 ratio as percent), (−)MDMA” value is 0.6% and the “Antibody Specificity (IC50 ratio as percent), (−)METH” value is reported as 2.2%.
